Holding throughout (type): cell-based
The subject of data set [1] is suspension cell-line WEHI 231.7. Kind of data set: Transfection with luciferase plasmid, compound of Example 1b or cationic lipids (Table 4). To be noted: for Luciferase activity: WEHI 231.7, 6 well plates, 2 μg DNA per well, 48 h, background subtracted, DOTAP/DOSPER at cationic lipid/DNA 5/1 (wt/wt). How it is done: a) 1.0 mg of the compound obtained in Example 1b) was dissolved in trifluoroethanol and dried in vacuo. The film was then rehydrated with 1 ml of 10 mM Tris maleate buffer pH 6.
b) 10 μl of a plasmid DNA solution (1 mg/ml) were diluted with 190 μl of pure, sterile water. 100 μl of the product obtained in paragraph a) were added and gently mixed. The mixture was then added to cells.
Table 4: Transfection of various cell lines with the compound of Example 1b or cationic lipids. Cells grown in 6 well plates were transfected with a luciferase encoding plasmid (2 μg DNA per well) formulated as described earlier in this Example. Luciferase activity was measured 48 h later. Results are expressed as light units per mg of cell protein. Background was substracted from each measurement.
*)DOTAP (Avanti Polar Lipids Inc.) or DOSPER (BoehringerMannheim)
transfection complexes were prepared according to manufacturer's
instructions and were used at a cationic lipid/DNA ratio of 5/1 (wt/wt).

The test system of the next data set is HeLa. Kind of data set: Transfection with luciferase plasmid, compound of Example 1b/DOPE or cationic lipids (Table 2). Particulars: 48 h after transfection, Example 1b mixed with DOPE per Example 2, DOTAP, Lipofectamine per manufacturer. As for the experimental part: (§1) a) 1.1 mg of the compound obtained in Example 1b) were solubilized in trifluoroethanol and mixed with 1.1 mg of dioleoylphosphatidyl-ethanolamine (DOPE) in chloroform. The mixture was dried in vacuo and the remaining film rehydrated with 1 ml of 30 mM Tris Cl buffer pH 8.5. […]
(§2) b) Plasmid DNA (10 μg) was diluted in 400 μl of 30 mM Tris Cl buffer pH 8.5. Then […] of the product obtain in paragraph a) were added and gently mixed. The mixture was then added to cells.
(§3) |Transfection of various cell lines with a mixture of the | compound of Example 1b and DOPE or cationic lipids. Cells were | transfected with a luciferase encoding plasmid formulated as described | earlier in this Example. Luciferase activity was measured 48 h after | transfection. Results are expressed as μ Units per well, | ^2) DOTAP and Lipofectamine transfection complexes were prepared
(§4) according to the manufacturer's instructions.

Another data set has as its system LM tk-. Described as above. Particulars: 48 h after transfection, Example 1b mixed with DOPE per Example 2, DOTAP, Lipofectamine per manufacturer. How it is done:
as §1, §2, §3, §4

In the next data set the test system is LM. Described as above. Particulars: 48 h after transfection, Example 1b mixed with DOPE per Example 2, DOTAP, Lipofectamine per manufacturer. As for the experimental part: as §1, §2, §3, §4
The subject of another data set is CHO K1. The data set is described as above. Particulars: 48 h after transfection, Example 1b mixed with DOPE per Example 2, DOTAP, Lipofectamine per manufacturer. How it is done: as §1, §2, §3, §4
The next data set relates to 293-EBNA. The data set is described as above. Particulars: 48 h after transfection, Example 1b mixed with DOPE per Example 2, DOTAP, Lipofectamine per manufacturer. As for the experimental part:
as §1, §2, §3, §4

For the next data set, the system named is C2E12. The data set is described as above. Particulars: 48 h after transfection, Example 1b mixed with DOPE per Example 2, DOTAP, Lipofectamine per manufacturer. As for the experimental part: as §1, §2, §3, §4
Another data set relates to 293 EBNA cells. Kind of data set: Transfection of 293 EBNA cells with compound of Example 1b, polyethylenimine or a mixture thereof (Table 5). Particulars: 6 cm dishes, 1 μg DNA per well, 48 h. As for the experimental part: a) 1.0 mg of the compound obtained in Example 1b) was dissolved in trifluoroethanol and dried in vacuo. The film was then rehydrated with 1 ml of 10 mM Tris maleate buffer pH 6. b) 10 μl of a plasmid DNA solution (1 mg/ml) were diluted with 200 μl of pure, sterile water. 39 μl of the product obtained in paragraph a) and 14 μl of an aqueous polyethylenimine solution (0.45 mg/ml) were added. The mixture was adjusted with water to 300 μl, gently mixed and then added to 292 EBNA cells. […]
c) 10 μl of a plasmid DNA solution (1 mg/ml) were diluted with 200 μl of pure, sterile water. 52 μl of the product obtained in paragraph a) were added and adjusted with water to 300 μl. The mixture was gently mixed and then added to 292 EBNA cells. […]
d) 10 μl of a plasmid DNA solution (1 mg/ml) were diluted with 200 μl of pure, sterile water. 56 μl of an aqueous polyethylenimine solution (0.45 mg/ml) were added and adjusted with water to 300 μl. The mixture was gently mixed and then added to 292 EBNA cells.
Transfection of 293 EBNA cells with the compound of Example
| 1b, polyethylenimine or a mixture thereof. Cells grown in 6 cm dishes | were transfected with a luciferase encoding plasmid (1 μg DNA per […]
formulated as described earlier in this Example. Luciferase activity […]
measured 48 h later. Results are expressed as relative light units per

The test system of another data set is HepG2. The data set can be described thus: Transfection with β-galactosidase plasmid, increasing DNA doses (Table 3). Particulars: mixture with DOPE, 48 h after transfection. As for the experimental part:
as §1, §2
(§5) The effect of DNA dose on the transfection efficiency of various cell lines using the compound obtained in Example 1b formulated according to the example 2 is shown in Table 3.
(§6) |Transfection of various cell lines with a mixture of the | compound of Example lb and DOPE using increasing DNA doses. Cells
(§7) were transfected with a β-galactosidase encoding plasmid formulated […]
(§8) described earlier in this Example. β-galactosidase activity was […]
(§9) 48 h after transfection. Results are expressed as μ Units per well, […]

The next data set relates to CV-1. The description is as above. Particulars: mixture with DOPE, 48 h after transfection. How it is done:
as §1, §2, §5, §6, §7, §8, §9

A further data set has as its system 3T3. Described as above. To be noted: mixture with DOPE, 48 h after transfection. How it is done:
as §1, §2, §5, §6, §7, §8, §9

The test system of the next data set is COS-1. Described as above. To be noted: mixture with DOPE, 48 h after transfection. As for the experimental part:
as §1, §2, §5, §6, §7, §8, §9

For another data set, the system named is various cell lines. Kind of data set: Toxicity on cells at high doses of DNA and compound (Table 3 experiment). Particulars: formulated according to Example 2. How it is done:
a) 1.1 mg of the compound obtained in Example 1b) were solubilized in trifluoroethanol and mixed with 1.1 mg of dioleoylphosphatidyl-ethanolamine (DOPE) in chloroform. The mixture was dried in vacuo and the remaining film rehydrated with 1 ml of 30 mM Tris Cl buffer pH 8.5.
as §2, §5

With `CCCCCCCC/C=C\CCCCCCCC(=O)OCC(COC(=O)CCCCCCC/C=C\CCCCCCCC)NC(=O)C(CCCNCCCN)NCCCN` (stereo not drawn) [DOSPER], the Luciferase activity in data set [1] is 0 light units per mg of cell pro.

For `CCCCCCCC/C=C\CCCCCCCC(=O)OCC(C[N+](C)(C)C)OC(=O)CCCCCCC/C=C\CCCCCCCC` (stereo not drawn) [DOTAP, reference compound], the Luciferase activity in data set [1] is reported as 0 light units per mg of cell pro; in the data set on HeLa, 5409 μ Units per well; in the data set with LM tk- it was 594518 μ Units per well; in the data set with LM, 68614 μ Units per well; in the data set on CHO K1, 814133 μ Units per well; in the data set on 293-EBNA it was 706718 μ Units per well. The molecule further gave a Luciferase activity with C2E12 of 156947 μ Units per well.

Turning to “compound of formula IIA wherein R^1 and R^2 are oleoyl and R^3 is the residue --(CH2)--CH(NH2)--CO-Ile-Gly-Ala-Val-Leu-Lys-Val-Leu-Thr-Thr-Gly-Leu-Pro-Ala-Leu-Ile-Ser-Trp-Ile-Lys-Arg-Lys-Arg-Gln-Gln-NH2 [Example 1b]”, the “Ability to transfect the suspension cell-line WEHI 231.7” value in data set [1] (compared with DOTAP and DOSPER, same transfection conditions) is “able to transfect the suspension cell-line WEHI 231.7, albeit at a low level”. In addition, the Luciferase activity is 3.9 × 10^5 relative light units per dish in the data set on 293 EBNA cells; 33497 μ Units per well with HeLa; 1712739 μ Units per well in the data set with LM tk-; 31685 μ Units per well with LM; 1825019 μ Units per well with CHO K1; 2343658 μ Units per well in the data set on 293-EBNA. This molecule also had a Luciferase activity in the data set with C2E12 of 563827 μ Units per well. In addition, the Galactosidase activity came out at 2533 μ Units per well with HepG2 (0.2 μg DNA); 7944 μ Units per well with HepG2 (0.5 μg DNA); 8988 μ Units per well with HepG2 (1 μg DNA); 13816 μ Units per well in the data set on HepG2 (2 μg DNA); 2700 μ Units per well in the data set with CV-1 (0.2 μg DNA); 4440 μ Units per well in the data set with CV-1 (0.5 μg DNA). Further, the Galactosidase activity in the data set on CV-1 (1 μg DNA) amounted to 9775 μ Units per well; in the data set on CV-1 (2 μg DNA) it was 20434 μ Units per well; in the data set with 3T3 (0.2 μg DNA), 318 μ Units per well; in the data set on 3T3 (0.5 μg DNA), 451 μ Units per well; in the data set with 3T3 (1 μg DNA) it was 1032 μ Units per well; in the data set with 3T3 (2 μg DNA), 1301 μ Units per well. Besides, the Galactosidase activity with COS-1 (0.2 μg DNA) came out at 16325 μ Units per well; with COS-1 (0.5 μg DNA), 20545 μ Units per well; in the data set with COS-1 (1 μg DNA), 16005 μ Units per well; with COS-1 (2 μg DNA) it was 15740 μ Units per well. Further, in the data set on various cell lines, the Toxicity on cells result is listed as “without any obvious toxicity”.

The values are drawn from patent US6030602A, “Peptide conjugates for transfecting cells” (Hoffmann-La Roche Inc., priority 1996, dated 2000).
